Laboratory results from the supplement of paper PMC7877785.
± gives the uncertainty stated by the source.

Assay: self-splicing fitness, log relative to wild type (ln ratio); higher = more splicing; Tetrahymena group I intron in knt gene, E. coli kanamycin selection, DiMSum; sequences stand for … in CUCUCU…GGAGGGAAAAGUUAUCAGGCAUGCACCUGGUAGCUAGUCUUUAAACCAAUAGAUUGCAUCGGUUUAAAAGGCAAGACCGUCAAAUUGCGGGAAAGGGGUCAACAGCCGUUCAGUACCAAGUCUCAGGGGAAACUUUGAGAUGGCCUUGCAAAGGGUAUGGUAAUAAGCUGACGGACAUGGUCCUAACCACGCAGCCAAGUCCUAAGUCAACAGAUCUUCUGUUGAUAUGGAUGCAGUUCACAGACUAAAUGUCGGUCGGGGAAGAUGUAUUCUUCUCAUAAGAUAUAGUCGGACCUCUCCUUAAUGGGAGCUAGCGGAUGAAGUGAUGCAACACUGGAGCCGCUGGGAACUAAUUUGUAUGCGAAAGUAUAUUGAUUAGUUUUGGAGUACUCGUGGUCG
How it was run: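 Colonies from six replicate transformations of E. coli BL21(DE3) were pooled and amplicon-sequenced on an Illumina HiSeq 2500. The library placed an intron with all eight P1ex-region nucleotides randomised inside the knt kanamycin-resistance gene on pET-22b(+), and cells grew overnight at 37°C or 30°C on LB agar with or without 25 μg/mL kanamycin (plus 100 μg/mL carbenicillin, 50 μM IPTG, 0.2% rhamnose). Fitness is the DiMSum error-weighted combination of wild-type-normalised replicate fold changes, kanamycin versus none.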

Row | Sequence | self-splicing fitness (ln) (30 °C) | self-splicing fitness (ln) (37 °C)
1 | UCACAGCAAUAUUACGCUUG | -2.14 ± 0.12 | 0.263 ± 0.1
2 | UCACAGCAAUAUUACGGAAA | -3.16 ± 0.24 | -1.85 ± 0.18
3 | UCACAGCAAUAUUACGGCAC | -2.93 ± 0.27 | -2.49 ± 0.31
4 | UCACAGCAAUAUUACGGUUA | -0.541 ± 0.072 | 0.291 ± 0.08
5 | UCACAGCAAUAUUACGUAAU | -3.25 ± 0.21 | -2.54 ± 0.29
6 | UCACAGCAAUAUUACGUAUA | -2.64 ± 0.12 | -1.37 ± 0.1
7 | UCACAGCAAUAUUACGUAUC | -4.32 ± 0.46 | -2.75 ± 0.19
8 | UCACAGCAAUAUUACGUCUA | -1.25 ± 0.077 | -0.331 ± 0.075
9 | UCAGAGCAAUAUUACGAAGU | -3.13 ± 0.33 | 
10 | UCAGAGCAAUAUUACGACAU | -4.002 ± 0.035 | -2.6 ± 0.045
11 | UCAGAGCAAUAUUACGACUG | -1.67 ± 0.19 | -0.645 ± 0.2
12 | UCAGAGCAAUAUUACGAUGU | -1.87 ± 0.077 | -1.41 ± 0.093
13 | UCAGAGCAAUAUUACGCAAA | -1.85 ± 0.23 | -2.03 ± 0.46
14 | UCAGAGCAAUAUUACGCAAU | -2.77 ± 0.24 | -3.06 ± 0.35
15 | UCAGAGCAAUAUUACGCUGC |  | -0.708 ± 0.32
16 | UCAGAGCAAUAUUACGGAAC | -2.43 ± 0.2 | -2.49 ± 0.26
17 | UCAGAGCAAUAUUACGGCGC | -1.6 ± 0.2 | -2.6 ± 0.45
18 | UCAGAGCAAUAUUACGGCGU | -3.42 ± 0.22 | -2.05 ± 0.18
19 | UCAGAGCAAUAUUACGUCAA | -3.81 ± 0.4 | -2.13 ± 0.23
20 | UCAGAGCAAUAUUACGUCAC | -2.51 ± 0.18 | 
21 | UCAGAGCAAUAUUACGUCGA | -1.11 ± 0.072 | -0.44 ± 0.11
22 | UCAGAGCAAUAUUACGUCUU | -3.53 ± 0.32 | -2.53 ± 0.36
23 | UCAGAGCAAUAUUACGUUAU | -2.84 ± 0.19 | -3.42 ± 0.4
24 | UCAGAGCAAUAUUACGUUUC | -3.15 ± 0.23 | -3.04 ± 0.38
25 | UCAUAGCAAUAUUACGAACG | -0.967 ± 0.085 | -0.602 ± 0.12
26 | UCAUAGCAAUAUUACGACCA | -0.368 ± 0.34 | -0.568 ± 0.31

Row | Sequence | self-splicing fitness (ln) (30 °C) | self-splicing fitness (ln) (37 °C)
27 | UCAUAGCAAUAUUACGAGAG | -2.96 ± 0.24 | -2.44 ± 0.22
28 | UCAUAGCAAUAUUACGCAAC | -3.77 ± 0.39 | -1.48 ± 0.32
29 | UCAUAGCAAUAUUACGCAGC | -3.15 ± 0.35 | -1.03 ± 0.23
30 | UCAUAGCAAUAUUACGCGAA | -2.95 ± 0.23 | -1.51 ± 0.15
31 | UCAUAGCAAUAUUACGCGCA | 0.0597 ± 0.12 | 0.225 ± 0.12
32 | UCAUAGCAAUAUUACGCGGU | -3.43 ± 0.25 | -2.2 ± 0.25
33 | UCAUAGCAAUAUUACGCUAG | -3.15 ± 0.22 | -1.34 ± 0.2
34 | UCAUAGCAAUAUUACGCUCG | -0.651 ± 0.15 | -0.277 ± 0.17
35 | UCAUAGCAAUAUUACGCUGG | -3.05 ± 0.19 | -2.3 ± 0.16
36 | UCAUAGCAAUAUUACGGAGA | -1.95 ± 0.17 | -0.994 ± 0.13
37 | UCAUAGCAAUAUUACGGCCC |  | -1.11 ± 0.43
38 | UCAUAGCAAUAUUACGGCUA | -2.69 ± 0.27 | -2.37 ± 0.39
39 | UCAUAGCAAUAUUACGGGCU |  | -2.19 ± 0.32
40 | UCAUAGCAAUAUUACGGUGU | -3.51 ± 0.21 | -1.27 ± 0.13
41 | UCAUAGCAAUAUUACGUAAC | -3.57 ± 0.37 | -1.6 ± 0.31
42 | UCAUAGCAAUAUUACGUACG | -1.57 ± 0.12 | -0.499 ± 0.13
43 | UCAUAGCAAUAUUACGUCUG | -1.16 ± 0.081 | -0.895 ± 0.1
44 | UCAUAGCAAUAUUACGUCUU | -3.28 ± 0.24 | -3.53 ± 0.32
45 | UCAUAGCAAUAUUACGUGCA | -1.06 ± 0.082 | 0.377 ± 0.092
46 | UCAUAGCAAUAUUACGUGCC | -3.48 ± 0.41 | -1.34 ± 0.23
47 | UCAUAGCAAUAUUACGUUGA | -3.91 ± 0.29 | -2.75 ± 0.16
48 | UCCAAGCAAUAUUACGAACC | -1.65 ± 0.25 | 
49 | UCCAAGCAAUAUUACGAUGC | -2.69 ± 0.31 | 
50 | UCCAAGCAAUAUUACGCCCG | -2.32 ± 0.26 | 
51 | UCCAAGCAAUAUUACGCGUA | -0.121 ± 0.056 | 0.286 ± 0.06
52 | UCCAAGCAAUAUUACGCGUU | -4.5 ± 0.19 | -2.33 ± 0.15

Row | Sequence | self-splicing fitness (ln) (30 °C) | self-splicing fitness (ln) (37 °C)
53 | UCCAAGCAAUAUUACGCUGU | -2.3 ± 0.14 | -2.25 ± 0.17
54 | UCCAAGCAAUAUUACGCUUU | -3.8 ± 0.18 | -2.16 ± 0.19
55 | UCCAAGCAAUAUUACGGCGC | -2.4 ± 0.14 | -2.5 ± 0.15
56 | UCCAAGCAAUAUUACGGGAU | -3.88 ± 0.22 | -2.52 ± 0.16
57 | UCCAAGCAAUAUUACGGGUA | -0.53 ± 0.062 | 0.199 ± 0.066
58 | UCCAAGCAAUAUUACGGUUG | -3.43 ± 0.13 | -3.04 ± 0.19
59 | UCCAAGCAAUAUUACGUAAU | -1.94 ± 0.11 | -0.725 ± 0.14
60 | UCCAAGCAAUAUUACGUACC | -2.68 ± 0.19 | -2.18 ± 0.26
61 | UCCAAGCAAUAUUACGUCAU | -3.09 ± 0.14 | -1.39 ± 0.11
62 | UCCAAGCAAUAUUACGUGAC | -3.7 ± 0.3 | -3.17 ± 0.35
63 | UCCCAGCAAUAUUACGAAAA | -2.38 ± 0.2 | -0.834 ± 0.18
64 | UCCCAGCAAUAUUACGAACG | -2.94 ± 0.31 | -2.39 ± 0.29
65 | UCCCAGCAAUAUUACGAAUA | -2.11 ± 0.1 | -1.42 ± 0.11
66 | UCCCAGCAAUAUUACGACCC | -2.89 ± 0.31 | -2.44 ± 0.35
67 | UCCCAGCAAUAUUACGAGCU | -3.05 ± 0.17 | -2.18 ± 0.2
68 | UCCCAGCAAUAUUACGAUAU | -3.15 ± 0.18 | -1.74 ± 0.22
69 | UCCCAGCAAUAUUACGAUGA | -0.0138 ± 0.055 | 0.23 ± 0.069
70 | UCCCAGCAAUAUUACGCAAG | -3.45 ± 0.16 | -2.69 ± 0.21
71 | UCCCAGCAAUAUUACGCACA | -1 ± 0.071 | -0.318 ± 0.095
72 | UCCCAGCAAUAUUACGCACC |  | -1.21 ± 0.35
73 | UCCCAGCAAUAUUACGCCCA | -1.5 ± 0.18 | -0.396 ± 0.14
74 | UCCCAGCAAUAUUACGCUAC |  | -2.27 ± 0.32
75 | UCCCAGCAAUAUUACGCUGG | -3.94 ± 0.16 | -2.62 ± 0.16
76 | UCCCAGCAAUAUUACGCUUC | -2.73 ± 0.19 | -2.76 ± 0.48
77 | UCCCAGCAAUAUUACGCUUG | -3.31 ± 0.15 | -2.4 ± 0.19
78 | UCCCAGCAAUAUUACGGCAA | -0.595 ± 0.1 | 0.128 ± 0.11
